For 1 substance, activity results are on record in US20250346638.

The series concerns TNF ATF 3 (synthetic construct). Nature of the series: cell_activity. The note with it: TNF ELISA about 100 pg/mL with CD3/CD28 Dynabeads vs shock; about 3-fold with stimulation cocktail and BFA (FIG. 15). On the technique in general: In an ELISA, binding on a coated surface is turned into a signal by an enzyme label.
Sequence of TNF ATF 3 (synthetic construct) (chain, as listed by the source): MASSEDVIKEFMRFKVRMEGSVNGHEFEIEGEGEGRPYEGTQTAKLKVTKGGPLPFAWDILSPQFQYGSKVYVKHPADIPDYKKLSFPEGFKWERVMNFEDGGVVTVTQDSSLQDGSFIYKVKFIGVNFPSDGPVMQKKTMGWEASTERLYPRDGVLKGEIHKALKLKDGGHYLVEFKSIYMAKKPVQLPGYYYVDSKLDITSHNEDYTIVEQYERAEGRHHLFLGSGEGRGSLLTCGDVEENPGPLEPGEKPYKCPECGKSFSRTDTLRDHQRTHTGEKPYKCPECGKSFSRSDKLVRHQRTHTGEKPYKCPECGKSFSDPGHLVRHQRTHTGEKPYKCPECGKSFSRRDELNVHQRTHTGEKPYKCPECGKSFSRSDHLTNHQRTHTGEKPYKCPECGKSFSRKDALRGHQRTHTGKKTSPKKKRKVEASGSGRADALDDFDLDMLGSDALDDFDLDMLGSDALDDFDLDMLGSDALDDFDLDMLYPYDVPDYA

In the case of TNF promoter ATF 3 target, the activity worked out at 5 fold.
